Holding throughout (assay type): binding
The nature of assay [1]: Probe fluorescence ratio response to arachidonic acid relative to ADIFAB2. Conditions: Table 5; Arachidonic acid. In short, it runs like this: (§1)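 Each fatty acid's response was expressed relative to ADIFAB2, the rI-FABP-L72A probe, as ΔR/ΔRreference. ΔR is the change in the background-corrected two-wavelength intensity ratio R=Fλ1/Fλ2 from its analyte-free baseline R0. Emission was read near about 420-480 nm for unbound and about 495-580 nm for FFA-bound probe.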

Assay [2] in a line: Probe fluorescence ratio response to oleic acid relative to ADIFAB2. As to conditions: Table 5. Summed up: as §1
Assay [3] in a line: Probe fluorescence ratio response to stearic acid relative to ADIFAB2. As to conditions: Table 5. Summed up: as §1
A short description of assay [4]: Probe fluorescence ratio response to palmitoleic acid relative to ADIFAB2. Conditions: Table 5. In short, it runs like this: as §1
Assay [5] is described as follows: Probe fluorescence ratio response to linoleic acid relative to ADIFAB2. As to conditions: Table 5. In short, it runs like this: as §1
Assay [6] in a line: Probe fluorescence ratio response to linolenic acid relative to ADIFAB2. Conditions: Table 5. Summed up:
as §1

A short description of assay [7]: Probe fluorescence ratio response to palmitic acid relative to ADIFAB2. Conditions: Table 5. In short, it runs like this: as §1
Assay [8] in a line: Probe fluorescence intensity change with UCB:BSA.

B1: L2P8A6: FABP probe, substitutions M18I G31V F55V A73V vs SEQ ID NO: 2 (protein, listed as Rattus norvegicus)
chain: AFDGTWKVDRNENYEKFIEKMGINVVKRKLVAHDNLKLTITQEGNKFTVKESSNVRNIDVVFELGVDFAYSLVDGTELTGTWTMEGNKLVGKFKRVDNGKELIAVREISGNELIQTYTYEGVEAKRIFKKE
modifications: PEPTIDE (1)...(131) wild-type rat intestinal fatty acid binding protein
For B1, the “ΔR/DRAΔ2 AA” value in assay [1] was 0.6. Also, in assay [2], the “ΔR/DRAΔ2 OA” value is 0.4. In addition, the “ΔR/DRAΔ2 SA” value in assay [3] is given as 0.2. For the same molecule, the “ΔR/DRAΔ2 POA” value in assay [4] was 1.3. In assay [5], the “ΔR/DRAΔ2 LA” value was 0.8. For the same molecule, in assay [6], the “ΔR/DRAΔ2 LNA” value was determined as 1.2. Further, the “ΔR/DRAΔ2 PA” value in assay [7] was found to be 1.0.

B2: L1P5 H9: FABP probe, mutations 14M 72I 117W vs SEQ ID NO: 2 (protein, listed as Rattus norvegicus)
chain: AFDGTWKVDRNENMEKFMEKMGINVVKRKLGAHDNLKLTITQEGNKFTVKESSNFRNIDVVFELGVDFAYSIADGTELTGTWTMEGNKLVGKFKRVDNGKELIAVREISGNELIQTWTYEGVEAKRIFKKE
modifications: PEPTIDE (1)...(131) wild-type rat intestinal fatty acid binding protein
On to B2, for which, in assay [8], the “ΔI/Io 1:1 UCB:BSA 440 nm” value was −0.58, the “ΔI/Io 1:1 UCB:BSA 500 nm” value is reported as −0.63, the “ΔI/Io 1:2 UCB:BSA 440 nm” value is recorded as −0.34 and the “ΔI/Io 1:2 UCB:BSA 500 nm” value was −0.34.

B3: L2P22G6: FABP probe, substitutions M18I G31Y A73G vs SEQ ID NO: 2 (protein, listed as Rattus norvegicus)
chain: AFDGTWKVDRNENYEKFIEKMGINVVKRKLYAHDNLKLTITQEGNKFTVKESSNFRNIDVVFELGVDFAYSLGDGTELTGTWTMEGNKLVGKFKRVDNGKELIAVREISGNELIQTYTYEGVEAKRIFKKE
modifications: PEPTIDE (1)...(131) wild-type rat intestinal fatty acid binding protein
On to B3, for which the “ΔR/DRAΔ2 AA” value in assay [1] amounted to 1.8. Moreover, in assay [2], the “ΔR/DRAΔ2 OA” value came to 1.6. The “ΔR/DRAΔ2 SA” value in assay [3] is listed as 0.9. Besides, the “ΔR/DRAΔ2 POA” value in assay [4] is reported as 2.6. For the same molecule, the “ΔR/DRAΔ2 LA” value in assay [5] worked out at 2.6. Also, the “ΔR/DRAΔ2 LNA” value in assay [6] stood at 2.7. In addition, the “ΔR/DRAΔ2 PA” value in assay [7] was 1.9.

B4: L1P14 D6: FABP probe, mutations 14M 72V 117W vs SEQ ID NO: 2 (protein, listed as Rattus norvegicus)
chain: AFDGTWKVDRNENMEKFMEKMGINVVKRKLGAHDNLKLTITQEGNKFTVKESSNFRNIDVVFELGVDFAYSVADGTELTGTWTMEGNKLVGKFKRVDNGKELIAVREISGNELIQTWTYEGVEAKRIFKKE
modifications: PEPTIDE (1)...(131) wild-type rat intestinal fatty acid binding protein
Take B4: in assay [8], the “ΔI/Io 1:1 UCB:BSA 440 nm” value is on record as −0.69, the “ΔI/Io 1:1 UCB:BSA 500 nm” value was −0.64, the “ΔI/Io 1:2 UCB:BSA 440 nm” value is −0.37 and the “ΔI/Io 1:2 UCB:BSA 500 nm” value is −0.33.

B5: L5P16 H4: FABP probe, mutations 126K 73F 72A vs SEQ ID NO: 2 (protein, listed as Rattus norvegicus)
chain: AFDGTWKVDRNENYEKFMEKMGINVVKRKLGAHDNLKLTITQEGNKFTVKESSNFRNIDVVFELGVDFAYSAFDGTELTGTWTMEGNKLVGKFKRVDNGKELIAVREISGNELIQTYTYEGVEAKKIFKKE
modifications: PEPTIDE (1)...(131) wild-type rat intestinal fatty acid binding protein
B5: in assay [8], the “ΔI/Io 1:1 UCB:BSA 440 nm” value is reported as −0.69, the “ΔI/Io 1:1 UCB:BSA 500 nm” value is on record as −0.64, the “ΔI/Io 1:2 UCB:BSA 440 nm” value is −0.37 and the “ΔI/Io 1:2 UCB:BSA 500 nm” value is −0.31.

B6: L2P22 B1: FABP probe, mutations 18Y 31V 55V 72A vs SEQ ID NO: 2 (protein, listed as Rattus norvegicus)
chain: AFDGTWKVDRNENYEKFYEKMGINVVKRKLVAHDNLKLTITQEGNKFTVKESSNVRNIDVVFELGVDFAYSAADGTELTGTWTMEGNKLVGKFKRVDNGKELIAVREISGNELIQTYTYEGVEAKRIFKKE
modifications: PEPTIDE (1)...(131) wild-type rat intestinal fatty acid binding protein
For B6, in assay [8], the “ΔI/Io 1:1 UCB:BSA 440 nm” value is recorded as −0.70, the “ΔI/Io 1:1 UCB:BSA 500 nm” value is reported as −0.68, the “ΔI/Io 1:2 UCB:BSA 440 nm” value is −0.36 and the “ΔI/Io 1:2 UCB:BSA 500 nm” value is on record as −0.35.

B7: L2P2E11: FABP probe, substitutions M18I G31F vs SEQ ID NO: 2 (protein, listed as Rattus norvegicus)
chain: AFDGTWKVDRNENYEKFIEKMGINVVKRKLFAHDNLKLTITQEGNKFTVKESSNFRNIDVVFELGVDFAYSLADGTELTGTWTMEGNKLVGKFKRVDNGKELIAVREISGNELIQTYTYEGVEAKRIFKKE
modifications: PEPTIDE (1)...(131) wild-type rat intestinal fatty acid binding protein
B7: the “ΔR/DRAΔ2 AA” value in assay [1] is 1.9. For the same molecule, in assay [2], the “ΔR/DRAΔ2 OA” value came to 1.6. Further, the “ΔR/DRAΔ2 SA” value in assay [3] was determined as 0.8. Moreover, the “ΔR/DRAΔ2 POA” value in assay [4] was 2.6. For the same molecule, in assay [5], the “ΔR/DRAΔ2 LA” value was 2.5. The “ΔR/DRAΔ2 LNA” value in assay [6] amounted to 2.8. The “ΔR/DRAΔ2 PA” value in assay [7] came out at 2.0.

B8: L1P1 C12: FABP probe, mutations 38I 72W 117W vs SEQ ID NO: 2 (protein, listed as Rattus norvegicus)
chain: AFDGTWKVDRNENYEKFMEKMGINVVKRKLGAHDNLKITITQEGNKFTVKESSNFRNIDVVFELGVDFAYSWADGTELTGTWTMEGNKLVGKFKRVDNGKELIAVREISGNELIQTWTYEGVEAKRIFKKE
modifications: PEPTIDE (1)...(131) wild-type rat intestinal fatty acid binding protein
In the case of B8, in assay [8], the “ΔI/Io 1:1 UCB:BSA 440 nm” value is on record as −0.92, the “ΔI/Io 1:1 UCB:BSA 500 nm” value is given as −0.86, the “ΔI/Io 1:2 UCB:BSA 440 nm” value is recorded as −0.86 and the “ΔI/Io 1:2 UCB:BSA 500 nm” value is −0.79.

B9: L1P12 E8: FABP probe, mutations 14L 38A 72G 117F 114E vs SEQ ID NO: 2 (protein, listed as Rattus norvegicus)
chain: AFDGTWKVDRNENLEKFMEKMGINVVKRKLGAHDNLKATITQEGNKFTVKESSNFRNIDVVFELGVDFAYSGADGTELTGTWTMEGNKLVGKFKRVDNGKELIAVREISGNELEQTFTYEGVEAKRIFKKE
modifications: PEPTIDE (1)...(131) wild-type rat intestinal fatty acid binding protein
Regarding B9, in assay [8], the “ΔI/Io 1:1 UCB:BSA 440 nm” value is −0.79, the “ΔI/Io 1:1 UCB:BSA 500 nm” value is given as −0.70, the “ΔI/Io 1:2 UCB:BSA 440 nm” value is −0.45 and the “ΔI/Io 1:2 UCB:BSA 500 nm” value is recorded as −0.39.

B10: L1P1 B4: FABP probe, mutations 14I 72W 117W vs SEQ ID NO: 2 (protein, listed as Rattus norvegicus)
chain: AFDGTWKVDRNENIEKFMEKMGINVVKRKLGAHDNLKLTITQEGNKFTVKESSNFRNIDVVFELGVDFAYSWADGTELTGTWTMEGNKLVGKFKRVDNGKELIAVREISGNELIQTWTYEGVEAKRIFKKE
modifications: PEPTIDE (1)...(131) wild-type rat intestinal fatty acid binding protein
As for B10, in assay [8], the “ΔI/Io 1:1 UCB:BSA 440 nm” value is −0.66, the “ΔI/Io 1:1 UCB:BSA 500 nm” value is −0.64, the “ΔI/Io 1:2 UCB:BSA 440 nm” value is given as −0.36 and the “ΔI/Io 1:2 UCB:BSA 500 nm” value was −0.35.

B11: L2P11B4: FABP probe, substitutions M18V G31A A73W vs SEQ ID NO: 2 (protein, listed as Rattus norvegicus)
chain: AFDGTWKVDRNENYEKFVEKMGINVVKRKLAAHDNLKLTITQEGNKFTVKESSNFRNIDVVFELGVDFAYSLWDGTELTGTWTMEGNKLVGKFKRVDNGKELIAVREISGNELIQTYTYEGVEAKRIFKKE
modifications: PEPTIDE (1)...(131) wild-type rat intestinal fatty acid binding protein
As for B11, in assay [1], the “ΔR/DRAΔ2 AA” value was determined as 1.8. Besides, the “ΔR/DRAΔ2 OA” value in assay [2] is 1.9. Also, in assay [3], the “ΔR/DRAΔ2 SA” value is 0.7. Besides, in assay [4], the “ΔR/DRAΔ2 POA” value is reported as 3.1. The “ΔR/DRAΔ2 LA” value in assay [5] stood at 2.6. In addition, in assay [6], the “ΔR/DRAΔ2 LNA” value stood at 2.8. In assay [7], the “ΔR/DRAΔ2 PA” value is 2.2.

B12: L2P17H10: FABP probe, substitutions M18G G31F A73L vs SEQ ID NO: 2 (protein, listed as Rattus norvegicus)
chain: AFDGTWKVDRNENYEKFGEKMGINVVKRKLFAHDNLKLTITQEGNKFTVKESSNFRNIDVVFELGVDFAYSLLDGTELTGTWTMEGNKLVGKFKRVDNGKELIAVREISGNELIQTYTYEGVEAKRIFKKE
modifications: PEPTIDE (1)...(131) wild-type rat intestinal fatty acid binding protein
B12: the “ΔR/DRAΔ2 AA” value in assay [1] amounted to 1.8. Moreover, the “ΔR/DRAΔ2 OA” value in assay [2] came out at 1.4. Further, the “ΔR/DRAΔ2 SA” value in assay [3] is reported as 1.7. The “ΔR/DRAΔ2 POA” value in assay [4] stood at 1.2. In assay [5], the “ΔR/DRAΔ2 LA” value came to 1.5. Besides, in assay [6], the “ΔR/DRAΔ2 LNA” value is on record as 1.2. Besides, the “ΔR/DRAΔ2 PA” value in assay [7] was 1.0.

Values taken from patent US20060257938A1, “Method of screening for drugs that block ligand binding to a lipid binding protein” (priority 2005, published 2006).
